Tested on: MS2 coat protein
Test: apparent KD of MS2 coat protein; designed switch direction (-1 OFF switch, 1 ON switch): -1; higher = weaker reporter binding
Outline: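 The buffer was Tris-HCl pH 7.5 with KCl, MgCl2, BSA, DTT, tRNA and Tween-20. In it, SNAP-549-labelled MS2 coat protein was titrated in doubling steps from 0.7 or 1.5 nM to 3 µM over chip-bound RNA switches transcribed by stalled E. coli RNA polymerase on Illumina chips. Apparent KD is the per-design median over clusters of curve fits to normalised fluorescence.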

[1] = input ligand: microRNA oligo, concentration not stated
[2] = Eterna round: R95, input ligand: microRNA oligo, concentration not stated
[3] = Eterna round: R95, input ligand: FMN 200 uM
[4] = Eterna round: R95, input ligand: none

Sequence	apparent KD of MS2 coat protein (input ligand: FMN 200 uM) [µM]	apparent KD of MS2 coat protein (input ligand: none) [µM]	apparent KD of MS2 coat protein [2] [µM]	also measured
UCGCGAAGAGGAUAUACAUAGAAAUAGAUUCAUGUAAAACUACAUGAGGAUCACCCAUGUAGAAGGCUUUGCGU [Mat - Exclusion 2 - JL Mod - D60] (Eterna round: R97, puzzle: Exclusion 2)	0.108	0.017		
UCGCUCCGUGUAGGAUAUCGCUGUAUGAUGCGGCGAGAAGGACAUGAGGAUCACCCAUGUAUGUUAUUAUCACGCGUGGCGCAA [Design 64] (Eterna round: R96, puzzle: Exclusion NG 1)	0.0218	0.0175		apparent KD of MS2 coat protein [1]: 0.0116 µM
UCGGCGCGAGGAUAUACGUUUGCUUUUUGGGAUCGUUGCGUACAUGAGGAUCACCCAUGUAGAAGGCGCGCCGC [Apr-15 SS2-26] (puzzle: Exclusion 2)			0.0159	
UCGGCGCGAGGAUAUGCGGCUGGUGCUUCGGGCUCUGGCGUACAUGAGGAUCACCCAUGUAGAAGGCGCGCCGC [Apr-15 SS2-42] (puzzle: Exclusion 2)			0.0105	
UCGGUGUCAGGAUAUACAUGAGGAUCACCCAUGUAGAGAGAAGAUAGGGAAAGAGUAGGUAGAAGGGACGAGAG [JR_Exclu3_Sub045] (puzzle: Exclusion 3)			0.0291	apparent KD of MS2 coat protein [3]: 0.0437 µM; apparent KD of MS2 coat protein [4]: 0.0417 µM
UCUCAGUUAGGAUAUUUAAUGUGCCGUGAGGACACGCCUUUGAAGAAGGGACAUGAGGAUCACCCAUGUGAGUA [Eternabot (L2) Solution 44] (Eterna round: R97, puzzle: Exclusion 4)	0.0473	0.0263		
UCUCGACAUGAGGAUCACCCAUGUCAGGAUAUUGUGUUUGAGGUUUUUUACCUUUUGACAAGAAGGGAUGUGUG [LRO-Excl1-22] (puzzle: Exclusion 1)			0.0286	
UCUCGCGGGCAAGGAUAUCCUACGUUGUUCUGGCCCGUGUAUGUUACAUGAGGAUCACCCAUGUGGGAGAAGGUGCACCAGGGC [Design 39] (Eterna round: R96, puzzle: Exclusion NG 2)	0.0728	0.0774		apparent KD of MS2 coat protein [1]: 0.0438 µM
UCUUAGUCAGGAUAUACAUGAGGAUCACCCAUGUAAAAUUUUAAUUUAAUUUUAAGGUGUAGAAGGGACCACUU [Ex3 #19] (Eterna round: R97, puzzle: Exclusion 3)	0.0222	0.029		
UCUUAUUGAGGAUAUACAUUAAAAUACAUGAGGAUCACCCAUGUUCUUCAAUGUAUAUAUGUAGAAGGCAGAAUAU [Mat - Exclusion 5 - JL Mod - D27] (Eterna round: R97, puzzle: Exclusion 5)	0.0612	0.0288		
UCUUAUUGCAAGGAUAUGCAAUUUAUUUUUUAUGCAGAAGGUGCAACAUGAGGAUCACCCAUGUUUCCGGGCAU [JR_E6_Sub037] (puzzle: Exclusion 6)			0.0135	
UCUUAUUGCAAGGAUAUGCUAUUUAUUUUUUUUGCAGAAGGUGCAACAUGAGGAUCACCCAUGUUUCCGGGCAU [JR_E6_Sub036] (puzzle: Exclusion 6)			0.0203	
UCUUCAGCCAAGUUCACAUACAUGAGGAUCACCCAUGUUGCGUAACGCAUGCAUAUCCUAGUUGCUCGUUCUACAGU [Eternabot (L1) Solution 6] (Eterna round: R97, puzzle: Sensor, turn-off variant 1)	0.0264	0.0331		
UCUUUGUGAGGAUAUCAGUAGUAAAUAAAUAAAAUUACUACUGAGAAGGCACAUGAGGAUCACCCAUGUUCCUU [salish99_ex3_r3_091] (puzzle: Exclusion 4)			0.0135	
UGAAGGUCAGGAUAUGAGUCUAUCUGACGCAGACAUAGACAUUAGAAGGGACAUGAGGAUCACCCAUGUGGGAC [Eternabot (L1) Solution 29] (Eterna round: R97, puzzle: Exclusion 4)	0.106	0.0848		
UGAAUGUCAGGAUAUCGUGCAUACAACGAAAGUUCUAUGUGCGAGAAGGGACAUGAGGAUCACCCAUGUCUUCG [Omei Ex4 A15] (Eterna round: R97, puzzle: Exclusion 4)	0.0507	0.0183		
UGAGCUACAGGAUAUAUGUGGCGACCGUGAGGUCGAAGGUUACAUGAGGAUCACCCAUGUAGAAGGGUAGUUCU [Mat - Exclusion 2 - JL Mod - D20] (Eterna round: R97, puzzle: Exclusion 2)	0.311	0.284		
UGAGCUUCAGGAUAUACGUGACGACCGUGAGGUCGAAGGUUACAUGAGGAUCACCCAUGUAGAAGGGAAGUUCU [Mat - Exclusion 2 - JL Mod - D27] (Eterna round: R97, puzzle: Exclusion 2)	0.0708	0.0275		

Sequence	apparent KD of MS2 coat protein (input ligand: FMN 200 uM) [µM]	apparent KD of MS2 coat protein (input ligand: none) [µM]	apparent KD of MS2 coat protein [2] [µM]	also measured
UGAGUGCUGCGAGGAUAUACAUGAGGAUCACCCAUGUUUACCUGUGAGGCAAAGCCUCACAGGUUGUAGAAGGCGCAGUACUCU [Mat - Exclusion NG 2 - Mod of JL - D41] (Eterna round: R96, puzzle: Exclusion NG 2)	0.016	0.0186		apparent KD of MS2 coat protein [1]: 0.0113 µM
UGAUCAGACCGAGGAUAUACAUGGAGGACCCACGUGAGUGGGUCCACUACAUGAGGAUCACCCAUGUAGAAGGCGGUCUGAUCU [JL ENG2 1.91] (Eterna round: R96, puzzle: Exclusion NG 2)	1.88	0.128		apparent KD of MS2 coat protein [1]: 0.0913 µM
UGAUUGAUUAACAGAUUAUACAUGAGGAUCACCCAUGUAGGUCCUACGUGCCCUUUAAGCAGCUCGUCUUAUUCCCA [Sensor-V1 #69] (Eterna round: R97, puzzle: Sensor, turn-off variant 1)	0.0437	0.0456		
UGCAGACGAGGAUAUAGAUUUAAGUACAUGAGGAUCACCCAUGUACACAUGUAUUUAGAUUUAGAAGGCGUCUGCU [E5/17-A4] (Eterna round: R97, puzzle: Exclusion 5)	0.987	1.21		
UGCAUGCUAGGAUAUACGAAACAUUAGGGUUCUUUGUAUGAACAUGAGGAUCACCCAUGUAGAAGGAGCGUGCU [Mod7 of JL-ex2-2.15 mat747 mod] (puzzle: Exclusion 2)			0.0924	
UGCAUGUGAGGAUAUGGCGCUCGAUUGCGGAAGGAGCGAGUUUAGAAGGUACAUGAGGAUCACCCAUGUCACGU [Eternabot (L2) Solution 97] (Eterna round: R97, puzzle: Exclusion 4)	0.0216	0.0259		
UGCGAGUAAGGAUAUUCGCGACCGUUCACAAGAACGGUCGAGAAGAAGGUACUUGAGGAUCACCCAAGUCCUAG [Leonxegece] (Eterna round: R97, puzzle: Exclusion 4)	0.103	0.0242		
UGCGGUAGAGGAUAUACGUAGAAUUAGAUUCAUGUAAAACUACAUGAGGAUCACCCAUGUAGAAGGCUAUCGCU [JL-ex2-4.31 Eli mod] (Eterna round: R97, puzzle: Exclusion 2)	0.102	0.0193		
UGGCUGCUUAUGGAGUGUGACAUGAGGAUCACCCAUGUGGUAGUAAGGAACAAGCUUUUUACACGUACUUAUAAAGC [JR_SV3TOV1_Sub012] (puzzle: Sensor v3, turn-off variant 1)			0.0643	apparent KD of MS2 coat protein [3]: 0.296 µM; apparent KD of MS2 coat protein [4]: 0.438 µM
UGGGAGGGAGGAUAUACGAAAGUUAUUCUCAUGUCAGACCCACAUGAGGAUCACCCAUGUAGAAGGCCCGGGUC [EX2 B.17] (Eterna round: R97, puzzle: Exclusion 2)	0.358	0.203		
UGGGUACUCCAUAGAAGAGACAUGAGGAUCACCCAUGUAGGGCAAGCUUUUUGCUCGUCUUAGGAUGAGGGAUAGGA [JR_SV3TOV1_Sub014] (puzzle: Sensor v3, turn-off variant 1)			0.0791	apparent KD of MS2 coat protein [3]: 0.171 µM; apparent KD of MS2 coat protein [4]: 0.188 µM
UGGGUUCUCCAUAGAAGUAACAUGAGGAUCACCCAUGUAGGGCAAGUUUUUUGUUCGUCAUAGGCUGUGGAUUUGGA [JR_SV3TOV1_Sub020] (puzzle: Sensor v3, turn-off variant 1)			0.17	apparent KD of MS2 coat protein [3]: 0.0908 µM; apparent KD of MS2 coat protein [4]: 0.133 µM
UGGGUUGUUGUGAGGAUAUACUGUUUGUUUUGUUUGUAGAAGGUACAUGAGGAUCACCCAUGUUGGUUGUGGUU [JR_BME4_Sub031] (puzzle: Brourd's mod of Exclusion 4)			0.204	
UGGUAGUGAGGAUAUCCAAUAUAUGACAUGAGGAUCACCCAUGUUUCCACUCGUACCUCCGGAGAAGGCACAUGGU [Ex5 #54] (Eterna round: R97, puzzle: Exclusion 5)	0.0676	0.0619		
UGGUAGUUAGGAUAUACAUGAGGAUCACCCAUGUACGGGUGCAGAAAAGAAAGCCUUCGUAGAAGGAACACCUG [Aaredima] (Eterna round: R97, puzzle: Exclusion 3)	0.0691	0.0626		
UGGUCACAUGAGGAUCACCCAUGUCAGGAUAUCGUCACUGGAGCUUCGGCUCCAGUGACGAGAAGGGAUAUAAU [E1/9-A1] (Eterna round: R97, puzzle: Exclusion 1)	0.191	0.0578		
UGGUCCCUGAAACAUGAGGAUCACCCAUGUAUAAUGAGGACAAAGGAUAUAUCCCACCAGGUAGGGUAGAAGGUUGAACUCUAC [Eternabot solution 42] (Eterna round: R96, puzzle: Exclusion NG 3)	0.0131	0.0162		apparent KD of MS2 coat protein [1]: 0.0106 µM
